Values quoted from earlier work, collected in publication PMC11128129.

Biological target: PCSK9 (Homo sapiens) (UniProt Q8NBP7)
Sequence (Q8NBP7 153-692): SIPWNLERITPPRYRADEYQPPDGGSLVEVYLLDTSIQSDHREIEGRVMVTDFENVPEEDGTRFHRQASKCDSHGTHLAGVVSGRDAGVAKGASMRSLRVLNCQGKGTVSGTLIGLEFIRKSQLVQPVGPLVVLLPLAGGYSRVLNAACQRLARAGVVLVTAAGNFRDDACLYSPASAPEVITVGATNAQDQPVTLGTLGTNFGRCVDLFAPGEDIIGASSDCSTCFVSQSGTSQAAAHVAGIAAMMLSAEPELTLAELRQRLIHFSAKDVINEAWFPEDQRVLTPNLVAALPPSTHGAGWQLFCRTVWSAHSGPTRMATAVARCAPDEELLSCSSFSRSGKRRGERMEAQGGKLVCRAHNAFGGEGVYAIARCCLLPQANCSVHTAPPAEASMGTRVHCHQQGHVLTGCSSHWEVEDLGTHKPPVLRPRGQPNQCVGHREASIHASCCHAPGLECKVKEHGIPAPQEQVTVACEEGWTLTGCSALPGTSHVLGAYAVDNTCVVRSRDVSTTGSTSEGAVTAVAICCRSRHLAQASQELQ

In the case of LDLR (from UniProt P01130), the Kd is listed as 719 nM.
